Target: T1, His-tag fused human PJ01087 protein (Protein-Y) (human, UniProt O95886 1-979)
T1 construct: Used as 1% Triton-X supernatant of E. coli; also called His-PJ01087; not shown: N-terminal His-tag and linker encoded by vector pDEST17
T1 sequence: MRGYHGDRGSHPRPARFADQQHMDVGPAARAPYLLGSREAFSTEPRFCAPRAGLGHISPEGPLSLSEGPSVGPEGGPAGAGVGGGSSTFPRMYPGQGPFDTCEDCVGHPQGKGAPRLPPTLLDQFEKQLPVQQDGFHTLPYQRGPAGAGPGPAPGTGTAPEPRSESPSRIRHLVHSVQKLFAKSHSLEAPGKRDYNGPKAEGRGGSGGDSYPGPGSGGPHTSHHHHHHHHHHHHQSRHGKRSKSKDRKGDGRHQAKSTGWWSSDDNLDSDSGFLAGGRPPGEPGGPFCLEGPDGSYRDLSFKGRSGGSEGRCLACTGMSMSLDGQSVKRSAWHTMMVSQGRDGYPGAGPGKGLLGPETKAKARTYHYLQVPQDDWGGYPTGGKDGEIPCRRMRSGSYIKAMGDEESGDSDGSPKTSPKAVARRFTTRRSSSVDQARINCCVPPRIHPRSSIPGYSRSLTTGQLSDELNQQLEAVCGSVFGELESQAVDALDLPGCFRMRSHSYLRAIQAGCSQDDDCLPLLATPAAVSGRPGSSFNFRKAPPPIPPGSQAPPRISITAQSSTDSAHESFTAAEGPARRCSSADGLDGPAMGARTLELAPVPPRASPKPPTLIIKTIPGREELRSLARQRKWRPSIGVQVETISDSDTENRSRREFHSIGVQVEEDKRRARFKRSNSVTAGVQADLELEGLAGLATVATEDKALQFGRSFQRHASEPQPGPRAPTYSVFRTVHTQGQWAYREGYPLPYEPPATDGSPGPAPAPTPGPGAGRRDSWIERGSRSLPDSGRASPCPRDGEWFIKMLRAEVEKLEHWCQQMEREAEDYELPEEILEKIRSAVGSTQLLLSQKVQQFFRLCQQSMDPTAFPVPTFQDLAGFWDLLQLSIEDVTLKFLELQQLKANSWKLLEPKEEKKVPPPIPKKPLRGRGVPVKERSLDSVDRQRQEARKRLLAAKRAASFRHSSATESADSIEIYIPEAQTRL
Assay: Immunoprecipitation with anti-GST antibody and Protein G-sepharose, Western blot with anti-His-tag antibody
Procedure: After adding 1 μl of anti-GST antibody (SIGMA) and agitating for 1 hour at 4° C., a further 30 μl of Protein G-sepharose was added thereto, and agitation proceeded for an additional 6 hours at 4° C. Thereafter, the supernatant was removed by centrifugation, and Protein G-sepharose was washed three times with 500 μl of 1% Triton-X/20 mM Tris (pH 7.4). After the washes, 30 μl of 2× sample buffer (2% SDS/50 mM Tris (pH 6.8)/30% glycerol/0.01% bromophenol blue) containing 2-mercaptoethanol was added to Protein G-sepharose and mixed. The samples were boiled for 2 minutes, subjected to electrophoresis on a 5%-20% polyacrylamide gel, and transferred onto a PVDF membrane. Then Western blotting was performed with anti-GST antibodies and anti-His-tag antibodies.
However, when Protein-Y (His-PJ01087) was reacted with Protein-X (GST-hj02537) or the Protein-X mutant (GST-hj (GK−)) to perform immunoprecipitation with an anti-GST antibody followed by detecting with an anti-His-tag antibody, no band showing Protein-Y was detected. Thus, no result showing that binding of Protein-Y to Protein-X exists could be obtained (lanes 5 or 6 in FIG. 23).

B1: GST fused novel PSD (Protein-X) (hj02537) (other, not shown: a dimerising Fc or GST)
chain: MPALSTGSGSDTGLYELLAALPAQLQPHVDSQEDLTFLWDMFGEKSLHSLVKIHEKLHYYEKQSPVPILHGAAALADDLAEELQNKPLNSEIRELLKLLSKPNVKALLSVHDTVAQKNYDPVLPPMPEDIDDEEDSVKIIRLVKNREPLGATIKKDEQTGAIIVARIMRGGAADRSGLIHVGDELREVNGIPVEDKRPEEIIQILAQSQGAITFKIIPGSKEETPSKEGKMFIKALFDYNPNEDKAIPCKEAGLSFKKGDILQIMSQDDATWWQAKHEADANPRAGLIPSKHFQERRLALRRPEILVQPLKVSNRKSSGFRRSFRLSRKDKKTNKSMYECKKSDQYDTADVPTYEEVTPYRRQTNEKYRLVVLVGPVGVGLNELKRKLLISDTQHYGVTVPHTTRARRSQESDGVEYIFISKHLFETDVQNNKFIEYGEYKNNYYGTSIDSVRSVLAKNKVCLLDVQPHTVKHLRTLEFKPYVIFIKPPSIERLRETRKNAKIISSRDDQGAAKPFTEEDFQEMIKSAQIMESQYGHLFDKIIINDDLTVAFNELKTTFDKLETETHWVPVSWLHS
notes: Crude 1% Triton-X E. coli supernatant used for immunoprecipitation; also called GST-hj02537
B1: no binding.
